Here are results for 22 sequences from a protein production outcome set (Wang et al. 2014).
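Also: failed if final PepcDB status was selected cloned or expressed and not failed if soluble or beyond.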

The data set can be described thus: label from the status in PepcDB records.
For the sequence “MFLLSGDPCFKTPPSTAKSISIPGQDSSLQLTCKGGGTSSGGSSTNSLTGSRPPKARPTILSSGLPEEPDQNLSSPEEVFHSGHSRNSSYASQQSKISGYSTEHSRSSSLSDLTHRRNTSTSSSASGGLGMTVEGPEGSEREHRPPEKPPRPPRPLHLSDRSFRRKKDSVESHPTWVDDTRIDADAIVEKIVQSQDFTDGSNTEDSNLRLFVSRDGSATLSGIQLATRVSSGVYEPVVIESH”, the protein production result is on record as “failed”. As for “MPNELSRSLSPYLLMHANDPVEWRMWSKETLRIATEENRLIFLSIGYSSCHWCHVMHEESFVDPDVAEILNNNYIPVKVDREERPDLDSYFMKVSQVINGNGGWPLNIILLPDARPVFAMTYVPKEDRNGMTGLKTILIQLSQMYLKDPDQFKDQAKAVSDAMEERESV”, the entry is “not failed”; as for “MDPEKGTIRLDFMHSLGTWMVPELIRTFRAEHPNVEFQLHQAAAMLLVDRVLADETDLALVGPKPAEVGTSLGWAPLLRQRLALAVPADHRLASFSGQGELPLITAAEEPFVAMRAGFGTRLLMDALAEEAGFVPNVVFESME”, “failed”.

For “MVDLGKQRDHNYHHMQIITTPTSVDCSREFRHRRTLRSLIECMIPYCCTYQQQPYQNDTLSVSSTSSSSSSSDHSSSSQSSSTVSGTFFGHRRGRVSFCLQDAAVGSSPLLLLELAVPTAALAKEMDEEGVLRIALECDRRRSSNSRSSSIFDVPVWSMFCNGRKMGFAVRRKVTENDAVFLRMMQSVSVGAGVVPSEEEDQMLYLRARFERVTGSSDSESFHMMNPGGSYGQELSIFLLRS”, the protein production result is reported as “failed”. As for “MFFRSIRFSLTLWYAVTLAVILVLFSSFIYLVLSNQLNKGIDRELLTVAEAVASPTLEPFRHAAPSVFDQVLEDFIGTRLTGKHVQVLDGSGAVAASSKSMEELRIPLGKTALRRVQAGKVSYETRVNLDVYPVRTIVYPIMTDGRLDQIVLVGTSMRGPAETLEKVQLVFAVSIPLALILWSLGGWFLAGRALKPVDLITRSARKITAENLGLRLEVINPQDEIGRLATTFNDTLERLENAFNRIRQFTGDVSHELRTPLTILRGEAEVGLKWAKEPEEFRELLRSNLEEINRMSKIIETLLELSRVEGGVKLELADLDLSDLLAELVQQSRLIAPDKSLRIAFVGQEPVTILGDWLRLRQVFMNLLDNAVKYTPADGEISVVVDTTGDSARVAIIDSGPGIPPEDLPHIFERFYRVDKARNRADGGCGLGLSLVKTFVEAHGGRIEVVSEAGKGSIFTVLLPRVVAG”, the entry is “not failed”. In the case of “MFIPQIVPIRDLKNTSAISNLCHKTNEPIFITKNGYGDMVIMSMETYEGNAFFNNLYGNLEEAEMDLQNGRVSGIDEAIEEIKSRYDL”, the protein production result is “failed”.

“MREESIGRIAKDFLGHEGFQLTEWGGGNLNYLYRVDSTKESYILKYAPPYIRCLGEGYPLSSERLRYEILGLKAANETIPEFAPKLFYVAKEGVVMEYLEGFKLLRQAFIQGEKIPHLAEHLAEMLARFLVKNSFWALNEGERKKLLEQSENSLMRRLSEDYIFTFPFMEHPTNQKNPTSAPSVREIHQDKEWLGAILWLKSRFSTAKEGLLHGDLHTGSLMIKGEQIKMIDFEFSFVGPLSFDLGAILANWLIAYRTHKERGEVGGYSQWLREEMEEFIERFKEQFEFWAGEHGAPQIGIKGYLEALLIEAWGMAGVKIARRILGAAGVEDITSLESPLKEEVERRLLVLSREMTLRAALGIIPIQKGGREAYSWLF”: the protein production result was “failed”. For “MHILYFLFPKVTFNSFSTPIFFTLISFYSLVTFFPLLSLFIRTSIPSNLINMIIQNSIKGVFVHLDVKMRFFLDFYFLNSLICYSNYIVPFLLAHTLNLITPSVLTTVECDF”, the protein production result is reported as “failed”. For “MSLSNRAGEILIVEDSPTQAEHLKHILEETGYQTEHVRNGREAVRFLSLTRPDLIISDVLMPEMDGYALCRWLKGQPDLRTIPVILLTILSDPRDVVRSLECGADDFITKPCKDVVLASHVKRLLSGVKRTEERYSRESITLAFGNEGHHHHHH”, the protein production entry was “not failed”. Regarding “MAIKNAFYAQSGGVTAVINASACGVIQTARKHPDQIGKVYAGRNGIIGALKEELIDTSLESDDAIQALIHTPGGAFGSCRYKLKNISENQREYERLIEVFRAHDIGYFFYNGGGDSQDTAYKVSQLADRMGYPITCIGVPKTVDNDLPFTDCCPGFGSVAKYIATSTLEASLDIKSMCETSTKVFILEVMGRHAGWIAAAGGLAGQSEGEPPHVILFPEIPFNREKFLERVDQCVRDYGYCVVVASEGAQYEDGRFVADAGAKDAFGHTQLGGVAPALANMVKQALGHKYHWAVADYLQRAARHIASATDVEQAYAVGKAAVEMALAGKQALMPTIVRDQAKPYRWSIGEANLSEVANQEKKMPIHYITDNGFGITQDCRDYLQPLIAGESFPPFDDGLPRVAKLKNQLVEKKLRTEFELLEHHHHHH”, the protein production result is listed as “failed”. “MRQTKLTKAARGRECQVRIPGVCNGNPETTVLAHYRLAGTCGVGKKPHDMQGAWCCSACHDACDGRSRAVGRETARQYHAEGVMRTQALLLNEGVLVE”: the protein production entry is “not failed”.

For the sequence “MLRHILTAKNLLSNPIFKFPNCLPFLSTVCCICRQFVGENLCSFADSPSLFEMWFHFLQLRSALNISSALRQVVHGTRWHAKRKSYKVLFWREITPLAVPIFMENACVLLMGVLSTFLVSWLGKDAMAGVGLADSFNMVIMAFFAAIDLGTTVVVAFSLGKRDRRRARVATRQSLVIMTLFAVLLATLIHHFGEQIIDFVAGDATTEVKALALTYLELTVLSYPAAAITLIGSGALRGAGNTKIPLLINGSLNILNIIISGILIYGLFSWPGLGFVGAGLGLTISRYIGAVAILWVLAIGFNPALRISLKSYFKPLNFSIIWEVMGIGIPASVESVLFTSGRLLTQMFVAGMGTSVIAGNFIAFSIAALINLPGSALGSASTIITGRRLGVGQIAQAEIQLRHVFWLSTLGLTAIAWLTAPFAGVMASFYTQDPQVKHVVVILIWLNALFMPIWSASWVLPAGFKGARDARYAMWVSMLSMWGCRVVVGYVLGIMLGWGVVGVWMGMFADWAVRAVLFYWRMVTGRWLWKYPRPEPQKCEKKPVVSE”, the protein production result is reported as “failed”.

As to “MTTQKLLSDCQFCSVVSKNNGEDPIGTANTSDNWLVLEAALPWTEEHLHSDRILSQIHDLFHELENRHIPVIPIAIAPDREYSVPGYVRALHYKRPTKSFAEFEKQEFLIPESQIGQFTSGFLEYPNDLDQFQTYQQPKNHIREIMVCTHGNVDVACSRFGYPIYQNLRQNYAAKSAGQLRVWRCSHIGGHQFAPTLFDLPTGQFWGHIEPEILDVLVWRNSPVKQLRQFYRGWSGMTKFEQIVEREIWMQHGWEWLQYQKSGQVLAKDTTNDEWNADWAEVRIDFTSPDNSIQGSYLARVEACSQVMTVFNSGKEQPLETVKQYRVSQLTQQLINI”, the protein production entry is “failed”. For “MTILSAALLLFLILDPLGNIPVFLSVLKPLPPKRQRFVLARELLIALCVLMAFLWGGKYALELMHLRQESVAIAGGIVLFVIGIRMIFPRPEGLMGEIPDGEPFIVPLAIPLVAGPSGMAAVMLMGSNEPTRLWDWSLALMIAWIGASSILAAAPLLYKLLGHRALTAIERLMGMLLVAISVQMFLDGLGTYFKLPVSI”, the protein production entry is recorded as “failed”. For the sequence “MGSVAARDYVGIATKYAEAAVADKGRKRHGRWIRLAAKRFLDDLKRARRRGTPFFFDEWHANDACDFIEKLPHVEGKWETPTIVMHPSHVFFVVQLFGFRRRDAIKVEGWGDDDTFHPRRFTSALFAVARKNAKSTLASAILLYCLCCEPEEGAQVISAATTFDQASIIFRASKRMVEKTPDLAEAFGLATWAKSISRFETGSSYKAVHAKASTQDGLNPSHTGLDEIHAHKTADLLNVLQSAAGARANPLWLFTTTEGYTNAGPWAEIRGFVFALLRGVLGTQADHFLALFYALDNEDKSAKITQDDEFDESKWIKANPLLDVNPHLKAAIRKEAVEAKQMPSKLAEFRIKRCNRPASTASGWVDLTKWAKCGGAVDLDWLAGYPCWGGLDLASTTDIAAFRLLWLVEGVWYTHGWRWVPSEAVKQRTERATVPYAGWVEAGYLLQTEGDVTDYSVIERDILAAVQRFDPQQIAYDAWNAADLVNRLVAASVPMVQFVQGTKSYHPAMQALELAYVGGKLVHGGDPVLAWCASNLVARRDVNLSMAPDRKRSADKIDDMAALLMAMGLAVASDDAEDLSDFFNNAVIGLEHHHHHH”, the protein production result is “not failed”. Consider “YKELDVHLRRMESGFGFRILGGDEPGQPILIGAVIAMGSADRDGRLHPGDELVYVDGIPVAGKTHRYVIDLMHHAARNGQVNLTVRRKVL”, for which the protein production result is recorded as “not failed”. Consider “MSLALYLGNKRMNDMYYTIGQVAKMQHLTISQIRYYDKQGLFPFLQRNEKGDRIFNEEALKYLEMILCLKNTGMPIQKIKQFIDWSMEGDSTILHRLKLMKQQEANVLQLIQDTEKNLKKIQQKIAKYEDEISSANATTKEGHHHHHH”, for which the protein production entry is listed as “not failed”. Consider “MSQERTDGDLRNTGLSLKHDREWDYELDRIVEAVEERDAEKVGLQFPEGLKRRGPAVADDLREELPDDVTVLLSGQPCYGACDLDTYMMRRTDVFVHFGHSPMKESDKIIYVPLFSNVDVFPIMEQAREEQLADPEDDPDVGLVTTAQHMNKFDEMREWLEERGYTVHTRRGDERLTHEGQVLGCNYASADVDADQMLYVGGGKFHPLGLAMEHPEKHVVIADPVNNVVTVADTEKFMKQRYGAVHRAMDAESWGVIFCTKIGQGRWDQAEEIVENNENAYLITMDEVTPDRLTNFGMDAYVNTGCPRITTDDGPQFKKPMLTPGEYEIAIGEKPLDSLEFDTFHGTWLEHHHHHH”, for which the protein production entry is “not failed”. Turning to “MTLVEFPAITFAAVVCWAVGSLLQIPAKNSKVSGPLSWLFLFSGTLVLVWFLASYWIALDRPPLRTLGETRLWYATLIPVVGFLVEYRYKIGWLKYYCMGLATVFLGINYMHPDVFEKALMPALQSPWFVPHVVVYLVGYVLLAASAVSGWHNVFLNFRGKRSAKGESMAHYLALLGFVLLTFGLIFGALWAKEAWGHYWTWDPKETWAFISWLAYLGYLHLVACKTDPRKLQWYLGLAFFVLLVCWFGVNYLPSAQNSVHTYSGAS”, the protein production entry is listed as “failed”. Take “MDTVWMEIWTTVRNEFADIPDVAEATRIVLRLGMAVALGGLLGYERERSGKAAGLRTHMLVALGAALFVLVPLQGGMEVGDLSRVLQGVIAGIGFLGAGAIIKLGNEGEIRGLTTSAGIWLTAAIGVAAGMGREATALASTLIALFVLAALRHLEKRIAARDDKRVVAQPPP”: the protein production entry is reported as “failed”. Turning to “MLRLARKGLQTAVVRSYAKDVKFGAEGRQAMLVGVNLLADAVSVTMGPKGRNVIIEQSWGSPKITKDGVTVAKSIDLKDKYQNLGAKLIQDVANKANEEAGDGTTCATVLARAIAKEGFESIRQGGNAVEIRRGVMNAVEVVVAELKKISKKVTTPEEIAQVATISANGDTVVGNLISDAMKKVGTTGVITVKDGKTLNDELELIEGMKFDRGYISPYFITSAKGAKVEYEKALVLLSEKKISQVQDIVPALELANKLRRPLVIIAEDVDGEALTTLVLNRLKVGLQVVAIKAPGFGDNRKNTLKDMGIATGATIFGDDSNLIKIEDITANDLGEVDEVTITKDDTLLLRGRGDQTEIEKRIEHITDEIEQSTSDYEKEKLNERLAKLSKGVAVLKIGGGSEVEVGEKKDRVTDALCATRAAVEEGIVPGGGVALLRSLTALKNYKAANEDQQIGVNIVKKALTQPIATIVKNAGLEPSSIIDEVTGNSNTSYGYDALNGKFVDMFEAGIIDPTKVVRTALQDASGVASLLATTECVVTEIPKEEAVGGPAGGMGGMGGMGGMGGMGF”, the protein production result is listed as “not failed”. On to “MVFDAIVVTDLQGFIIDWNKGSETLYGYSKEQAIGQPVNMLHVPGDTEHITSEVISAVENQGKWTGEIRMLHKDGHIGWIESMCVPIYGENYQMVGALGINRDITKRKKELEHHHHHH”, for which the protein production entry is on record as “failed”.
